# T1: tau peptide 352-380 (human)
# T1 construct: Synthetic peptide (EZBiolabs), numbered on tau 2N4R
# T1 peptide: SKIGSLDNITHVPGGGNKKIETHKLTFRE
# T2: tau peptide 282-311 (human)
# T2 construct: Synthetic peptide (EZBiolabs), numbered on tau 2N4R; also called peptide derived from MTBRII
# T2 peptide: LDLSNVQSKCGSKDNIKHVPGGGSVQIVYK
# T3: tau peptide 314-342 (human)
# T3 construct: Synthetic peptide (EZBiolabs), numbered on tau 2N4R
# T3 peptide: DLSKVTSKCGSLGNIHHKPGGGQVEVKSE
# T4: tau peptide 256-285 (human)
# T4 construct: Synthetic peptide (EZBiolabs), numbered on tau 2N4R
# T4 peptide: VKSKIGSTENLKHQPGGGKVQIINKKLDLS
# Experiments:
# [1] = biological target: T5, misdisordered truncated tau 151-391/4R (human, UniProt P10636 468-708); assay: assay not named in the sentence (tau binding assay of the examples)
# T5 construct: Recombinant, from clone tau40 in pET-17b, expressed in E. coli; numbered on the longest human tau isoform 2N4R (441 aa); An added start methionine is not mentioned; also called tauΔ(1-150;392-441)/4R; misdisordered tau II
# T5 sequence (P10636 468-708): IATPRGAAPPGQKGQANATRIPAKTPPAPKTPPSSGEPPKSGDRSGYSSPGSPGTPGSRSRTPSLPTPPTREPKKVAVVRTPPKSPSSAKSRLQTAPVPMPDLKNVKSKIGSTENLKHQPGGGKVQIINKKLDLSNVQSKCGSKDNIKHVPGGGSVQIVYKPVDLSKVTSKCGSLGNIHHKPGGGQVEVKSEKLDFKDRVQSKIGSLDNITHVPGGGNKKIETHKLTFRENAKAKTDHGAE
# [2] = biological target: T5, misdisordered truncated tau 151-391/4R; assay: binding ELISA of IgG4 versions, plate coated with Tau 151-391/4R
# [3] = biological target: T5, misdisordered truncated tau 151-391/4R; assay: cell-based or functional assay
# tau peptide 352-380 = biological target: T1, tau peptide 352-380; assay: direct ELISA, tau peptide coated on plate
# tau peptide 282-311 = biological target: T2, tau peptide 282-311; assay: direct ELISA, tau peptide coated on plate
# tau peptide 314-342 = biological target: T3, tau peptide 314-342; assay: direct ELISA, tau peptide coated on plate
# tau peptide 256-285 = biological target: T4, tau peptide 256-285; assay: direct ELISA, tau peptide coated on plate
binding result (tau peptide 352-380),binding result (tau peptide 282-311),binding result (tau peptide 314-342),Binder,also measured
,,,"AX038, humanized DC8E8 RHM/RKB (isotype not stated where tested) (antibody, V domains shown, also called RHM version) VH: QVQLVQSGAEVKKPGSSVKVSCKASGYIFSDYVISWVRQAPGQGLEWMGEIFPRSGSTYYNEKFKGRVTITADKSTSTAYMELSSLRSEDTAVYYCARDYYGTSFAMDYWGQGTLVTVSS VL: DIVMSQSPLSLPVTPGEPASISCKSSQSLLNSRTRKNYLAWYLQKPGQSPQLLIYWASTRESGVPDRFTGSGSGTDFTLKISRVEAEDVGVYYCKQSFYLRTFGQGTKVEIKR",binding result [1]: binds
,,,"AX028-IgG4, RHD heavy chain with chimeric DC8E8 kappa light chain, IgG4 isotype (antibody, V domains shown, also called AXON028-IgG4; RHD/VK) VH: QVQLVQSGAEVKKPGSSVKVSCKASGYTFSDYVISWVRQAPGQGLEWMGEIFPRSGSTYYNEKFKGRVTITADKSTSTAYMELSSLRSEDTAVYYCARDYYGTSFAMDYWGQGTLVTVSS VL: DIVMSQSPSSLAVSAGEKVTMSCKSSQSLLNSRTRKNYLAWYQQKPGQSPKLLIYWASTRESGVPDRFTGSGSGTDFTLTISSVQAEDLAVYYCKQSFYLRTFGGGTKLDIKR",binding result [2]: binds
,,,"AX037, humanized DC8E8 RHM/RKA (isotype not stated where tested) (antibody, V domains shown, also called RHM version) VH: QVQLVQSGAEVKKPGSSVKVSCKASGYIFSDYVISWVRQAPGQGLEWMGEIFPRSGSTYYNEKFKGRVTITADKSTSTAYMELSSLRSEDTAVYYCARDYYGTSFAMDYWGQGTLVTVSS VL: DIVMTQSPLSLPVTPGEPASISCKSSQSLLNSRTRKNYLAWYLQKPGQSPQLLIYWASTRESGVPDRFTGSGSGTDFTLKISRVEAEDVGVYYCKQSFYLRTFGQGTKVEIKR",binding result [1]: binds
,,,"AX001, humanized DC8E8 RHA/RKA (isotype not stated where tested) (antibody, V domains shown, also called initial humanized version) VH: QVQLVQSGAEVKKPGSSVKVSCKASGGTFSDYVISWVRQAPGQGLEWMGEIFPRSGSTYYNEKFKGRVTITADKSTSTAYMELSSLRSEDTAVYYCARDYYGTSFAMDYWGQGTLVTVSS VL: DIVMTQSPLSLPVTPGEPASISCKSSQSLLNSRTRKNYLAWYLQKPGQSPQLLIYWASTRESGVPDRFTGSGSGTDFTLKISRVEAEDVGVYYCKQSFYLRTFGQGTKVEIKR",fold decrease in binding affinity relative to chimeric DC8E8 [1]: 10 fold
,,,"AX029-IgG4, RHE heavy chain with chimeric DC8E8 kappa light chain, IgG4 isotype (antibody, V domains shown, also called AXON029-IgG4; RHE/VK) VH: QVQLVQSGAEVKKPGSSVKVSCKASGGIFSDYVISWVRQAPGQGLEWMGEIFPRSGSTYYNEKFKGRVTITADKSTSTAYMELSSLRSEDTAVYYCARDYYGTSFAMDYWGQGTLVTVSS VL: DIVMSQSPSSLAVSAGEKVTMSCKSSQSLLNSRTRKNYLAWYQQKPGQSPKLLIYWASTRESGVPDRFTGSGSGTDFTLTISSVQAEDLAVYYCKQSFYLRTFGGGTKLDIKR",binding result [2]: binds
,,,"AX014, humanized DC8E8 RHB/RKB (isotype not stated where tested) (antibody, 2 (a CDR)) VH: QVQLVQSGPEVKKPGSSVKVPCKASGYIFTDYVISWVKQAPGQGLEWIGEIFPRSGSTYYNEKFKGKATLTADKSTSTAYMELSSLRSEDTAVYFCARDYYGTSFAMDYWGQGTLVTVSS light: DIVMSQSPLSLPVTPGEPASISCKSSQSLLNSRTRKNYLAWYLQKPGQSPQLLIYWASTRESGVPDRFTGSGSGTDFTLKISRVEAEDVGVYYCKQSFYLRTFGQGTKVEIKRTVAAPSVFIFPPSDEQLKSGTASVVCLLNNFYPREAKVQWKVDNALQSGNSQESVTEQDSKDSTYSLSSTLTLSKADYEKHKVYACEVTHQGLSSPVTKSFNRGEC",binding result [1]: binds
,,,"AX026-IgG4, RHB heavy chain with chimeric DC8E8 kappa light chain, IgG4 isotype (antibody, V domains shown, also called AXON026-IgG4; RHB/VK) VH: QVQLVQSGPEVKKPGSSVKVPCKASGYIFTDYVISWVKQAPGQGLEWIGEIFPRSGSTYYNEKFKGKATLTADKSTSTAYMELSSLRSEDTAVYFCARDYYGTSFAMDYWGQGTLVTVSS VL: DIVMSQSPSSLAVSAGEKVTMSCKSSQSLLNSRTRKNYLAWYQQKPGQSPKLLIYWASTRESGVPDRFTGSGSGTDFTLTISSVQAEDLAVYYCKQSFYLRTFGGGTKLDIKR",binding result [2]: binds
binds,binds,binds,"AX004-IgG1, humanized DC8E8 RHD/RKA, IgG1 isotype (antibody, Expressed in Expi293, purified on Protein A and by size exclusion) heavy: not shown light: DIVMTQSPLSLPVTPGEPASISCKSSQSLLNSRTRKNYLAWYLQKPGQSPQLLIYWASTRESGVPDRFTGSGSGTDFTLKISRVEAEDVGVYYCKQSFYLRTFGQGTKVEIKRTVAAPSVFIFPPSDEQLKSGTASVVCLLNNFYPREAKVQWKVDNALQSGNSQESVTEQDSKDSTYSLSSTLTLSKADYEKHKVYACEVTHQGLSSPVTKSFNRGEC","amount of fibrillized pathological tau forms (Thioflavin T fluorescence), antibody at 10 uM [3]: < 3%; binding result (tau peptide 256-285): binds"
binds,binds,binds,"AX004-IgG4, humanized DC8E8 RHD/RKA, IgG4 isotype (antibody, Expressed in Expi293; also called AXON004-IgG4) heavy: not shown light: DIVMTQSPLSLPVTPGEPASISCKSSQSLLNSRTRKNYLAWYLQKPGQSPQLLIYWASTRESGVPDRFTGSGSGTDFTLKISRVEAEDVGVYYCKQSFYLRTFGQGTKVEIKRTVAAPSVFIFPPSDEQLKSGTASVVCLLNNFYPREAKVQWKVDNALQSGNSQESVTEQDSKDSTYSLSSTLTLSKADYEKHKVYACEVTHQGLSSPVTKSFNRGEC","amount of fibrillized pathological tau forms (Thioflavin T fluorescence), antibody at 10 uM [3]: < 3%; binding result (tau peptide 256-285): binds"
binds,binds,binds,"AX016-IgG4, humanized DC8E8 RHD/RKB, IgG4 isotype (antibody, Expressed in Expi293; also called AXON016-IgG4) heavy: not shown light: DIVMSQSPLSLPVTPGEPASISCKSSQSLLNSRTRKNYLAWYLQKPGQSPQLLIYWASTRESGVPDRFTGSGSGTDFTLKISRVEAEDVGVYYCKQSFYLRTFGQGTKVEIKRTVAAPSVFIFPPSDEQLKSGTASVVCLLNNFYPREAKVQWKVDNALQSGNSQESVTEQDSKDSTYSLSSTLTLSKADYEKHKVYACEVTHQGLSSPVTKSFNRGEC","amount of fibrillized pathological tau forms (Thioflavin T fluorescence), antibody at 10 uM [3]: < 3%; binding result (tau peptide 256-285): binds"
binds,binds,binds,"AX005-IgG1, humanized DC8E8 RHE/RKA, IgG1 isotype (antibody, Expressed in Expi293, purified on Protein A and by size exclusion) heavy: not shown light: DIVMTQSPLSLPVTPGEPASISCKSSQSLLNSRTRKNYLAWYLQKPGQSPQLLIYWASTRESGVPDRFTGSGSGTDFTLKISRVEAEDVGVYYCKQSFYLRTFGQGTKVEIKRTVAAPSVFIFPPSDEQLKSGTASVVCLLNNFYPREAKVQWKVDNALQSGNSQESVTEQDSKDSTYSLSSTLTLSKADYEKHKVYACEVTHQGLSSPVTKSFNRGEC",
,,,"AX002-IgG4, humanized DC8E8 RHB/RKA, IgG4 isotype (antibody, also called AXON002-IgG4) heavy: not shown light: DIVMTQSPLSLPVTPGEPASISCKSSQSLLNSRTRKNYLAWYLQKPGQSPQLLIYWASTRESGVPDRFTGSGSGTDFTLKISRVEAEDVGVYYCKQSFYLRTFGQGTKVEIKRTVAAPSVFIFPPSDEQLKSGTASVVCLLNNFYPREAKVQWKVDNALQSGNSQESVTEQDSKDSTYSLSSTLTLSKADYEKHKVYACEVTHQGLSSPVTKSFNRGEC",binding result [2]: binds
,,,"AX014-IgG4, humanized DC8E8 RHB/RKB, IgG4 isotype (antibody, also called AXON014-IgG4) heavy: not shown light: DIVMSQSPLSLPVTPGEPASISCKSSQSLLNSRTRKNYLAWYLQKPGQSPQLLIYWASTRESGVPDRFTGSGSGTDFTLKISRVEAEDVGVYYCKQSFYLRTFGQGTKVEIKRTVAAPSVFIFPPSDEQLKSGTASVVCLLNNFYPREAKVQWKVDNALQSGNSQESVTEQDSKDSTYSLSSTLTLSKADYEKHKVYACEVTHQGLSSPVTKSFNRGEC",binding result [2]: binds
binds,binds,binds,"AX016-IgG1, humanized DC8E8 RHD/RKB, IgG1 isotype (antibody, Expressed in Expi293, purified on Protein A and by size exclusion) heavy: not shown light: DIVMSQSPLSLPVTPGEPASISCKSSQSLLNSRTRKNYLAWYLQKPGQSPQLLIYWASTRESGVPDRFTGSGSGTDFTLKISRVEAEDVGVYYCKQSFYLRTFGQGTKVEIKRTVAAPSVFIFPPSDEQLKSGTASVVCLLNNFYPREAKVQWKVDNALQSGNSQESVTEQDSKDSTYSLSSTLTLSKADYEKHKVYACEVTHQGLSSPVTKSFNRGEC","amount of fibrillized pathological tau forms (Thioflavin T fluorescence), antibody at 10 uM [3]: < 3%; binding result (tau peptide 256-285): binds"
binds,binds,binds,"AX005-IgG4, humanized DC8E8 RHE/RKA, IgG4 isotype (antibody, Expressed in Expi293; also called AXON005-IgG4) heavy: not shown light: DIVMTQSPLSLPVTPGEPASISCKSSQSLLNSRTRKNYLAWYLQKPGQSPQLLIYWASTRESGVPDRFTGSGSGTDFTLKISRVEAEDVGVYYCKQSFYLRTFGQGTKVEIKRTVAAPSVFIFPPSDEQLKSGTASVVCLLNNFYPREAKVQWKVDNALQSGNSQESVTEQDSKDSTYSLSSTLTLSKADYEKHKVYACEVTHQGLSSPVTKSFNRGEC",
binds,binds,binds,"AX017-IgG1, humanized DC8E8 RHE/RKB, IgG1 isotype (antibody, Expressed in Expi293, purified on Protein A and by size exclusion) heavy: not shown light: DIVMSQSPLSLPVTPGEPASISCKSSQSLLNSRTRKNYLAWYLQKPGQSPQLLIYWASTRESGVPDRFTGSGSGTDFTLKISRVEAEDVGVYYCKQSFYLRTFGQGTKVEIKRTVAAPSVFIFPPSDEQLKSGTASVVCLLNNFYPREAKVQWKVDNALQSGNSQESVTEQDSKDSTYSLSSTLTLSKADYEKHKVYACEVTHQGLSSPVTKSFNRGEC",
binds,binds,binds,"AX017-IgG4, humanized DC8E8 RHE/RKB, IgG4 isotype (antibody, Expressed in Expi293; also called AXON017-IgG4) heavy: not shown light: DIVMSQSPLSLPVTPGEPASISCKSSQSLLNSRTRKNYLAWYLQKPGQSPQLLIYWASTRESGVPDRFTGSGSGTDFTLKISRVEAEDVGVYYCKQSFYLRTFGQGTKVEIKRTVAAPSVFIFPPSDEQLKSGTASVVCLLNNFYPREAKVQWKVDNALQSGNSQESVTEQDSKDSTYSLSSTLTLSKADYEKHKVYACEVTHQGLSSPVTKSFNRGEC",

# — patent US20180142007A1 (AXON NEUROSCIENCE, published 2018)
